Measurements reported in the supplement of paper PMC7877785.
± gives the uncertainty stated by the source.

Assay: self-splicing fitness, log relative to wild type (ln ratio); higher = more splicing; Tetrahymena group I intron in knt gene, E. coli kanamycin selection, DiMSum; sequences stand for … in CUCUCU…GGAGGGAAAAGUUAUCAGGCAUGCACCUGGUAGCUAGUCUUUAAACCAAUAGAUUGCAUCGGUUUAAAAGGCAAGACCGUCAAAUUGCGGGAAAGGGGUCAACAGCCGUUCAGUACCAAGUCUCAGGGGAAACUUUGAGAUGGCCUUGCAAAGGGUAUGGUAAUAAGCUGACGGACAUGGUCCUAACCACGCAGCCAAGUCCUAAGUCAACAGAUCUUCUGUUGAUAUGGAUGCAGUUCACAGACUAAAUGUCGGUCGGGGAAGAUGUAUUCUUCUCAUAAGAUAUAGUCGGACCUCUCCUUAAUGGGAGCUAGCGGAUGAAGUGAUGCAACACUGGAGCCGCUGGGAACUAAUUUGUAUGCGAAAGUAUAUUGAUUAGUUUUGGAGUACUCGUGGUCG
Method in brief: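 The eight P1ex-region nucleotides of an intron in the knt kanamycin-resistance gene on pET-22b(+) were all randomised and the library put into E. coli BL21(DE3). Six replicate transformations were grown overnight at 37°C or 30°C on LB agar with or without 25 μg/mL kanamycin, together with 100 μg/mL carbenicillin, 50 μM IPTG and 0.2% rhamnose. Colonies were pooled and amplicon-sequenced on an Illumina HiSeq 2500. Fitness from DiMSum is the error-weighted combination of wild-type-normalised replicate fold changes, kanamycin over none.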

| Sequence | self-splicing fitness (ln) (30 °C) | self-splicing fitness (ln) (37 °C) |
| --- | --- | --- |
| CACCAGCAAUAUUACGCUCC | -3.91 ± 0.21 | -2.11 ± 0.33 |
| CACCAGCAAUAUUACGGCCG | 0.194 ± 0.066 | 0.251 ± 0.087 |
| CACCAGCAAUAUUACGGGGA | -1.7 ± 0.062 | -0.764 ± 0.067 |
| CACCAGCAAUAUUACGGGUU | -1.82 ± 0.056 | -1.68 ± 0.081 |
| CACCAGCAAUAUUACGGUAA | -1.18 ± 0.056 | -0.566 ± 0.061 |
| CACCAGCAAUAUUACGGUAU | -2.42 ± 0.072 | -1.03 ± 0.067 |
| CACCAGCAAUAUUACGGUUG | -2.85 ± 0.094 | -1.04 ± 0.11 |
| CACCAGCAAUAUUACGUACG | 0.0448 ± 0.04 | 0.848 ± 0.062 |
| CACCAGCAAUAUUACGUCAU | -4.12 ± 0.17 | -2.27 ± 0.14 |
| CACCAGCAAUAUUACGUCCU | -3.31 ± 0.13 | -1.87 ± 0.14 |
| CACCAGCAAUAUUACGUUGC | -3.93 ± 0.17 | -3.5 ± 0.24 |
| CACGAGCAAUAUUACGAACA |  | -2.04 ± 0.47 |
| CACGAGCAAUAUUACGAAUA | -2.08 ± 0.12 | -2.23 ± 0.16 |
| CACGAGCAAUAUUACGACUU | -4.4 ± 0.34 | -0.766 ± 0.13 |
| CACGAGCAAUAUUACGAGUU | -4.28 ± 0.18 | -2.2 ± 0.12 |
| CACGAGCAAUAUUACGAUGG | -1.81 ± 0.096 | -1.45 ± 0.14 |
| CACGAGCAAUAUUACGCAGA |  | -2.28 ± 0.26 |
| CACGAGCAAUAUUACGCCGG | -3.41 ± 0.22 | -2.6 ± 0.3 |
| CACGAGCAAUAUUACGCCUA |  | -2.24 ± 0.45 |
| CACGAGCAAUAUUACGCGCA | -3.24 ± 0.18 | -2.52 ± 0.14 |
| CACGAGCAAUAUUACGGAUA | -2.98 ± 0.27 | -2.06 ± 0.24 |
| CACGAGCAAUAUUACGGCAG | -1.03 ± 0.11 | -0.837 ± 0.14 |
| CACGAGCAAUAUUACGGCCA |  | -2.79 ± 0.32 |
| CACGAGCAAUAUUACGGCGU | -2.68 ± 0.21 | -2.53 ± 0.26 |
| CACGAGCAAUAUUACGGCUA | -2.19 ± 0.22 | -1.41 ± 0.17 |

| Sequence | self-splicing fitness (ln) (30 °C) | self-splicing fitness (ln) (37 °C) |
| --- | --- | --- |
| CACGAGCAAUAUUACGGGAG | -3.53 ± 0.21 | -2.37 ± 0.18 |
| CACGAGCAAUAUUACGGGGA | -3.15 ± 0.12 | -2.51 ± 0.13 |
| CACGAGCAAUAUUACGGUAU | -3.04 ± 0.23 | -2.25 ± 0.22 |
| CACGAGCAAUAUUACGGUCC | -4.36 ± 0.28 | -3.16 ± 0.33 |
| CACGAGCAAUAUUACGGUGU | -3.93 ± 0.22 | -2.33 ± 0.21 |
| CACGAGCAAUAUUACGGUUA | -2.76 ± 0.17 | -2.48 ± 0.16 |
| CACGAGCAAUAUUACGUCCC | -1.45 ± 0.25 |  |
| CACGAGCAAUAUUACGUCGC | -2.82 ± 0.33 | -2.69 ± 0.41 |
| CACGAGCAAUAUUACGUGCU | -2.25 ± 0.12 | -2.99 ± 0.22 |
| CACGAGCAAUAUUACGUGUU | -2.98 ± 0.1 | -2.26 ± 0.15 |
| CACGAGCAAUAUUACGUUGA | -3.06 ± 0.17 | -2.47 ± 0.18 |
| CACGAGCAAUAUUACGUUUA | -2.88 ± 0.18 | -2.52 ± 0.19 |
| CACGAGCAAUAUUACGUUUC | -3.42 ± 0.17 | -2.42 ± 0.22 |
| CACGAGCAAUAUUACGUUUU | -3.49 ± 0.15 | -2.94 ± 0.18 |
| CACUAGCAAUAUUACGAACU | -2.65 ± 0.1 | -1.99 ± 0.15 |
| CACUAGCAAUAUUACGACUA | -2.82 ± 0.23 | -1.43 ± 0.2 |
| CACUAGCAAUAUUACGAGUG | -3.45 ± 0.2 | -2.73 ± 0.22 |
| CACUAGCAAUAUUACGAUUC | -3.02 ± 0.23 | -1.14 ± 0.26 |
| CACUAGCAAUAUUACGCAUG | -1.95 ± 0.13 | -1.75 ± 0.21 |
| CACUAGCAAUAUUACGCUCG | -0.657 ± 0.073 | 0.214 ± 0.089 |
| CACUAGCAAUAUUACGGAAG | -0.706 ± 0.088 | -0.266 ± 0.097 |
| CACUAGCAAUAUUACGGAUA | -2.41 ± 0.28 | -2.22 ± 0.28 |
| CACUAGCAAUAUUACGGCAC | -2.4 ± 0.11 | -1.53 ± 0.18 |
| CACUAGCAAUAUUACGGGGG | -2.43 ± 0.18 | -1.5 ± 0.17 |
| CACUAGCAAUAUUACGGGGU | -3.32 ± 0.19 | -2.37 ± 0.2 |

| Sequence | self-splicing fitness (ln) (30 °C) | self-splicing fitness (ln) (37 °C) |
| --- | --- | --- |
| CACUAGCAAUAUUACGUGCA | -2.44 ± 0.17 | -1.99 ± 0.23 |
| CACUAGCAAUAUUACGUGCG | -2.13 ± 0.081 | -0.945 ± 0.082 |
| CACUAGCAAUAUUACGUUCU | -3.24 ± 0.17 | -1.39 ± 0.14 |
| CAGAAGCAAUAUUACGACCA | -0.857 ± 0.24 |  |
| CAGAAGCAAUAUUACGACGA | -1.52 ± 0.18 | -0.939 ± 0.17 |
| CAGAAGCAAUAUUACGAGAA |  | -2.3 ± 0.35 |
| CAGAAGCAAUAUUACGAGAC | -1.15 ± 0.3 | -1.38 ± 0.28 |
| CAGAAGCAAUAUUACGAGCG | -0.175 ± 0.068 | 0.538 ± 0.086 |
| CAGAAGCAAUAUUACGAGUC | -3.79 ± 0.48 | -2.16 ± 0.32 |
| CAGAAGCAAUAUUACGAUCA | -2.19 ± 0.14 | -1.84 ± 0.17 |
| CAGAAGCAAUAUUACGCAGG | -2.75 ± 0.15 | -1.73 ± 0.13 |
| CAGAAGCAAUAUUACGCCAA | -3.35 ± 0.38 |  |
| CAGAAGCAAUAUUACGCGGC | -0.924 ± 0.15 |  |
| CAGAAGCAAUAUUACGCUAA | -4.46 ± 0.42 | -1.97 ± 0.26 |
| CAGAAGCAAUAUUACGCUGC |  | -2.34 ± 0.49 |
| CAGAAGCAAUAUUACGGACG | -0.743 ± 0.092 | -0.739 ± 0.12 |
| CAGAAGCAAUAUUACGGGAU | -3.18 ± 0.17 | -2.9 ± 0.2 |
| CAGAAGCAAUAUUACGGGGG | -3.09 ± 0.16 | -2.75 ± 0.21 |
| CAGAAGCAAUAUUACGGUGG | -1.26 ± 0.067 | -1.12 ± 0.079 |
| CAGAAGCAAUAUUACGGUUA | -2.25 ± 0.13 | -1.72 ± 0.12 |
| CAGAAGCAAUAUUACGUAGA | -3.54 ± 0.1 | -0.762 ± 0.075 |
| CAGAAGCAAUAUUACGUGUA | -3.81 ± 0.17 | -1.25 ± 0.094 |
| CAGAAGCAAUAUUACGUUCC |  | -1.75 ± 0.47 |
| CAGCAGCAAUAUUACGAACG | -0.451 ± 0.073 | 0.304 ± 0.11 |
| CAGCAGCAAUAUUACGACCA | -1.88 ± 0.19 | -1.22 ± 0.18 |

| Sequence | self-splicing fitness (ln) (30 °C) | self-splicing fitness (ln) (37 °C) |
| --- | --- | --- |
| CAGCAGCAAUAUUACGAGGA | -2.63 ± 0.2 | -2.42 ± 0.23 |
| CAGCAGCAAUAUUACGCACA | -0.847 ± 0.088 | -0.607 ± 0.093 |
| CAGCAGCAAUAUUACGCAUA | -1.81 ± 0.14 | -1.43 ± 0.17 |
| CAGCAGCAAUAUUACGCCCA | -1.98 ± 0.14 | -0.0298 ± 0.12 |
| CAGCAGCAAUAUUACGCCCC | -1.87 ± 0.48 | -0.533 ± 0.43 |
| CAGCAGCAAUAUUACGCCUU | -0.761 ± 0.097 | -0.274 ± 0.1 |
| CAGCAGCAAUAUUACGCGAA | -2.55 ± 0.13 | -1.82 ± 0.15 |
| CAGCAGCAAUAUUACGCGUG | -3.2 ± 0.18 | -1.92 ± 0.15 |
| CAGCAGCAAUAUUACGGCCU | -0.922 ± 0.1 | -0.208 ± 0.12 |
| CAGCAGCAAUAUUACGGCUG | -4.48 ± 0.25 | -1.82 ± 0.19 |
| CAGCAGCAAUAUUACGGGCU | -3.74 ± 0.17 | -2.51 ± 0.16 |
| CAGCAGCAAUAUUACGGGGG | -1.63 ± 0.076 | -1.54 ± 0.11 |
| CAGCAGCAAUAUUACGGUGU | -3.61 ± 0.15 | -2.72 ± 0.17 |
| CAGCAGCAAUAUUACGUAAG | -0.365 ± 0.046 | 0.0316 ± 0.067 |
| CAGCAGCAAUAUUACGUACG | -0.121 ± 0.08 | 0.866 ± 0.11 |
| CAGCAGCAAUAUUACGUAGC | -4.02 ± 0.28 | -2.94 ± 0.26 |
| CAGCAGCAAUAUUACGUCCG | 0.0818 ± 0.076 | 0.283 ± 0.086 |
| CAGCAGCAAUAUUACGUCUU | -0.473 ± 0.053 | 0.3 ± 0.07 |
| CAGCAGCAAUAUUACGUGCC | -3.2 ± 0.17 | -2.05 ± 0.21 |
| CAGCAGCAAUAUUACGUUAG | -1.17 ± 0.063 | -0.421 ± 0.078 |
| CAGGAGCAAUAUUACGAACU | -3.14 ± 0.34 | -3.19 ± 0.32 |
| CAGGAGCAAUAUUACGACGU | -3.17 ± 0.16 | -2.13 ± 0.2 |
| CAGGAGCAAUAUUACGAUGU | -4 ± 0.21 | -2.91 ± 0.17 |
| CAGGAGCAAUAUUACGCAAU |  | -1.35 ± 0.27 |
